T1: FOXC2-DBD (human, UniProt Q99958 72-171)
T1 sequence: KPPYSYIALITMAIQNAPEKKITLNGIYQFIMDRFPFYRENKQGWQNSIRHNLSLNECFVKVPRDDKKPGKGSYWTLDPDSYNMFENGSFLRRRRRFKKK

T2: FOXA2-DBD (human, UniProt Q9Y261-2 163-264)
T2 sequence: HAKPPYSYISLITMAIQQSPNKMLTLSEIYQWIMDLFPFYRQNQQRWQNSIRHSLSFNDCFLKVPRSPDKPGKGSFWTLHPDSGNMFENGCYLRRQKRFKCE

T3: FOXM1-DBD (human, UniProt Q08050 222-360)
T3 sequence: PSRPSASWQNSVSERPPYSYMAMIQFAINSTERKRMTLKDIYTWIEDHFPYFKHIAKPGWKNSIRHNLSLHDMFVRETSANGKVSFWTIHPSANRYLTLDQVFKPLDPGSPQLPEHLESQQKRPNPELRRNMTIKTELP

B1: DBE2 (GTAAACA) (dsDNA)
DNA 1: CAAAATGTAAACAAGA
DNA 2: TCTTGTTTACATTTTG
B2: DNA3 (GTACACA, palindromic) (dsDNA)
DNA 1: ATTTGTGTACACAAAT
DNA 2: ATTTGTGTACACAAAT
B3: GTACACA site (ITC) (dsDNA)
DNA 1: TGCAAAATGTACACAAGACT
DNA 2: AGTCTTGTGTACATTTTGCA
B4: ACAAATA site (DNA4, ITC) (dsDNA)
DNA 1: TGCAAAATACAAATAAGACT
DNA 2: AGTCTTATTTGTATTTTGCA

Key:
FOXC2-DBD [1] = target: T1, FOXC2-DBD; experiment: crystal structure
FOXC2-DBD [2] = target: T1, FOXC2-DBD; experiment: EMSA
FOXA2-DBD = target: T2, FOXA2-DBD; experiment: ITC
FOXM1-DBD = target: T3, FOXM1-DBD; experiment: ITC
FOXC2-DBD [3] = target: T1, FOXC2-DBD; experiment: ITC

Binder | binding result (FOXC2-DBD [1]) | binding result (FOXC2-DBD [2]) | Kd (FOXA2-DBD) [nM] | Kd (FOXM1-DBD) [nM] | Kd (FOXC2-DBD [3]) [nM]
B1 | binds | – | – | – | –
B2 | – | binds | – | – | –
B3 | – | – | 990 | 8300 | 2220
B4 | – | – | 7540 | 2070 | –

Reference: article PMC6468292
